Molecular target: T1, recombinant human IL-13Rα2Fc chimera protein (R&D) (human, UniProt Q14627 27-343, biotinylated (sulfo-NHS-biotin) in the immunofluorescence assay only)
T1 construct: Bought protein (R&D); It was used biotinylated in the IFA and unlabelled in the migration assay; also called huIL-13Rα2Fc chimeric protein; HuIL-13Rα2Fc; Fc part of the bought chimera not given
T1 sequence (looked up): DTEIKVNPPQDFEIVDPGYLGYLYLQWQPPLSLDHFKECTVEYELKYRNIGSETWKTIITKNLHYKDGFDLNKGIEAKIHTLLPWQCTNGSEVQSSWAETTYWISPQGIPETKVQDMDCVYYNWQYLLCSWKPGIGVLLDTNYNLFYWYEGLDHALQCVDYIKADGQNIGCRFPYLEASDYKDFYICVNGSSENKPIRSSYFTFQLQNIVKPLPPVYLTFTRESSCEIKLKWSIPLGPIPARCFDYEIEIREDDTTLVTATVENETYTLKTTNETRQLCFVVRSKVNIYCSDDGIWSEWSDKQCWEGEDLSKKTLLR
Assay: method not stated; affinity for recombinant IL-13Rα2Fc compared with the previously cloned scFv

fold higher binding affinity compared to the previously cloned scFv ECD-IL-13Rα2 (Kioi et al. 2008): > 4 fold
B1: IL-13Rα2 scFv (improved scFv-IL-13Rα2) (scFv)
scFv: QVQLVQSGAEVKKPGASVKVSCKASGYTFTSYAMHWVRQAPGQRLEWMGWINAGNGNTKYSQKFQGRVTITRDTSASTAYMELSSLRSEDTAVYYCARMNHMIPLKAWGQGTLVTVSSGGGGSGGGGSGGSALAIQMTQSPSSLSASVGDRVTITCRASQGIRNDLGWYQQKPGKAPKLLIYAASSLQSGVPSRFSGSGSGTDFTLTISSLQPEDFATYYCLQMYNYRTFGQGTKLEIKRA
notes: also called clone derived protein

— patent US20240189351A1 (US Dept. of Health and Human Services, published 2024)
